Assay results from the supplement of paper PMC10065799, “High-throughput profiling of sequence recognition by tyrosine kinases and SH2 domains using bacterial peptide display” (eLife, 2023).

Experiments:
AncSZ = test: phosphorylation enrichment, bacterial display (enrichment ratio); higher = better substrate or ligand; peptides without Tyr show the background
EPHB1 = EPHB1 (UniProt P54762); test: as above
EPHB2 = EPHB2 (UniProt P29323); test: as above
FGFR1 = FGFR1 (UniProt P11362); test: as above
FGFR1, sequence (P11362 whole entry, looked up): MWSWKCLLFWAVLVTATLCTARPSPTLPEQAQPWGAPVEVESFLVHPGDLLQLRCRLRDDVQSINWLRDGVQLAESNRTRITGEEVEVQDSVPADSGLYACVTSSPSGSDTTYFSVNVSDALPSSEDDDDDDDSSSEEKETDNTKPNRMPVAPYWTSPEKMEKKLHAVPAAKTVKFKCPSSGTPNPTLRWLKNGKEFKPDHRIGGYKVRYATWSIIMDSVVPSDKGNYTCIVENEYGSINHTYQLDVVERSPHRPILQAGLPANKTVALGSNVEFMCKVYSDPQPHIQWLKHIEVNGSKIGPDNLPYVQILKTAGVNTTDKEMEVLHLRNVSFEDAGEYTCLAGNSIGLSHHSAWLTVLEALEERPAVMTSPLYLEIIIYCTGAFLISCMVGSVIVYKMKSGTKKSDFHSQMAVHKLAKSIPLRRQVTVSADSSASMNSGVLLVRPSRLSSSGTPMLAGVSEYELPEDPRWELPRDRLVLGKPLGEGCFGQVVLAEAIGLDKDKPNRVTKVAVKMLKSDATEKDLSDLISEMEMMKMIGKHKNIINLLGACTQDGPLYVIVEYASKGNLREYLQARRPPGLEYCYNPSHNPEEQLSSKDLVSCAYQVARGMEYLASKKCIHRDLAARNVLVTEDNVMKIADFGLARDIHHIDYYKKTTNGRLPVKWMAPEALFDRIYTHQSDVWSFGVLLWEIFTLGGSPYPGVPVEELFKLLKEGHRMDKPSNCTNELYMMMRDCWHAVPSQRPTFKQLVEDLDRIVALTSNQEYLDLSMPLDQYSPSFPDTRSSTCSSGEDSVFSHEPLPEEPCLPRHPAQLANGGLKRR

FGFR3 = FGFR3 (UniProt P22607); test: as above
Fer (mouse) = test: as above
Fes = Fes (UniProt P07332); test: as above
Fes, sequence (P07332 whole entry, looked up): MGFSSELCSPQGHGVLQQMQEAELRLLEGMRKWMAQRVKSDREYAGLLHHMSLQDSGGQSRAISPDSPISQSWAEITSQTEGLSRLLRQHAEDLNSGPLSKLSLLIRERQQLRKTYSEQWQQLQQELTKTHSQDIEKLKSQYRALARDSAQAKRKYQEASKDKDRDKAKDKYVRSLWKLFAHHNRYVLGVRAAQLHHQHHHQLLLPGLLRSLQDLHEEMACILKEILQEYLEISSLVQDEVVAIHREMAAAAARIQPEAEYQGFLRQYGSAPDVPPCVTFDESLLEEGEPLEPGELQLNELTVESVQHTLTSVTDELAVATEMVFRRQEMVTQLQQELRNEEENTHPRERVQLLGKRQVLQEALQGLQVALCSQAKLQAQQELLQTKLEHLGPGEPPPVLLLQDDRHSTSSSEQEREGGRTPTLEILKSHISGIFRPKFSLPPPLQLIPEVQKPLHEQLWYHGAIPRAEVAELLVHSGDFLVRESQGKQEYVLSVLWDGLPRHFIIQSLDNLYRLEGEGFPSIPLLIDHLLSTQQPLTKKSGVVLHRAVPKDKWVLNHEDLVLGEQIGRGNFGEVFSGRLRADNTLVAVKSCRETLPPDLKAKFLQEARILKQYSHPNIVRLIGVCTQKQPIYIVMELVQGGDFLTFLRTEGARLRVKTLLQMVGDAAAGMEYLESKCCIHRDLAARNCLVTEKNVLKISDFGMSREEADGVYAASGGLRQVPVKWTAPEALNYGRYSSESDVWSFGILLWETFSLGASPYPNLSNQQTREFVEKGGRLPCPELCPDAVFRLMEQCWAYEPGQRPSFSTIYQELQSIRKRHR

Fyn = Fyn (UniProt P06241); test: as above
Fyn, sequence (P06241 whole entry, looked up): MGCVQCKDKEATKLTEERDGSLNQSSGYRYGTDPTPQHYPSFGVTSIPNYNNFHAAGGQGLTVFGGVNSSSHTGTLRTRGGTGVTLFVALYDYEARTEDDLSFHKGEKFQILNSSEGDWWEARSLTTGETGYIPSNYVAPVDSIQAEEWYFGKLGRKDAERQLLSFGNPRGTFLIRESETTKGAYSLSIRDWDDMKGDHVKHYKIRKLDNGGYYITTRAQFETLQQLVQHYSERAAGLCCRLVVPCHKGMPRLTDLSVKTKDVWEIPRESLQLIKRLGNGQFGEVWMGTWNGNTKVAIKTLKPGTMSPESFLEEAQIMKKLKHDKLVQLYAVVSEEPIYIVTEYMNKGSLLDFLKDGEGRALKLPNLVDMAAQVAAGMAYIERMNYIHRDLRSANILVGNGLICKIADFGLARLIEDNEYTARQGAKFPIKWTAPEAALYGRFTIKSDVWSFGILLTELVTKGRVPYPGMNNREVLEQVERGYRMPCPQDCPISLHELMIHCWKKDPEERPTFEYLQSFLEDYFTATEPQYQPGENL

Hck = Hck (UniProt P08631); test: as above
Hck, sequence (P08631 whole entry, looked up): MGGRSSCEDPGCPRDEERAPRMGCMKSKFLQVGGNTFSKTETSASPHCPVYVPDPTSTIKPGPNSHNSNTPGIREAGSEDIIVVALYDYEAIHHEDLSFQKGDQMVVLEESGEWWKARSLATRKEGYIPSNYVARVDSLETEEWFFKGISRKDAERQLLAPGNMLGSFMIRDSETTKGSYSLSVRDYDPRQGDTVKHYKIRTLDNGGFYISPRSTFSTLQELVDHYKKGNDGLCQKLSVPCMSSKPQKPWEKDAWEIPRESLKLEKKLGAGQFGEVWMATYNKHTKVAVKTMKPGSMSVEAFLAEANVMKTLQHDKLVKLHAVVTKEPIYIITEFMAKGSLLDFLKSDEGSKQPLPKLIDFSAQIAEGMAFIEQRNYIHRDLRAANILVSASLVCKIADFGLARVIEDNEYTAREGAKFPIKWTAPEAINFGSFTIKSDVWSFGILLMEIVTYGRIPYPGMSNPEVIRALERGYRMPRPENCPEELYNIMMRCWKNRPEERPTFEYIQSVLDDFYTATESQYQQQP

Jak2 = Jak2 (UniProt O60674); test: as above
Jak2, sequence (O60674 whole entry, looked up): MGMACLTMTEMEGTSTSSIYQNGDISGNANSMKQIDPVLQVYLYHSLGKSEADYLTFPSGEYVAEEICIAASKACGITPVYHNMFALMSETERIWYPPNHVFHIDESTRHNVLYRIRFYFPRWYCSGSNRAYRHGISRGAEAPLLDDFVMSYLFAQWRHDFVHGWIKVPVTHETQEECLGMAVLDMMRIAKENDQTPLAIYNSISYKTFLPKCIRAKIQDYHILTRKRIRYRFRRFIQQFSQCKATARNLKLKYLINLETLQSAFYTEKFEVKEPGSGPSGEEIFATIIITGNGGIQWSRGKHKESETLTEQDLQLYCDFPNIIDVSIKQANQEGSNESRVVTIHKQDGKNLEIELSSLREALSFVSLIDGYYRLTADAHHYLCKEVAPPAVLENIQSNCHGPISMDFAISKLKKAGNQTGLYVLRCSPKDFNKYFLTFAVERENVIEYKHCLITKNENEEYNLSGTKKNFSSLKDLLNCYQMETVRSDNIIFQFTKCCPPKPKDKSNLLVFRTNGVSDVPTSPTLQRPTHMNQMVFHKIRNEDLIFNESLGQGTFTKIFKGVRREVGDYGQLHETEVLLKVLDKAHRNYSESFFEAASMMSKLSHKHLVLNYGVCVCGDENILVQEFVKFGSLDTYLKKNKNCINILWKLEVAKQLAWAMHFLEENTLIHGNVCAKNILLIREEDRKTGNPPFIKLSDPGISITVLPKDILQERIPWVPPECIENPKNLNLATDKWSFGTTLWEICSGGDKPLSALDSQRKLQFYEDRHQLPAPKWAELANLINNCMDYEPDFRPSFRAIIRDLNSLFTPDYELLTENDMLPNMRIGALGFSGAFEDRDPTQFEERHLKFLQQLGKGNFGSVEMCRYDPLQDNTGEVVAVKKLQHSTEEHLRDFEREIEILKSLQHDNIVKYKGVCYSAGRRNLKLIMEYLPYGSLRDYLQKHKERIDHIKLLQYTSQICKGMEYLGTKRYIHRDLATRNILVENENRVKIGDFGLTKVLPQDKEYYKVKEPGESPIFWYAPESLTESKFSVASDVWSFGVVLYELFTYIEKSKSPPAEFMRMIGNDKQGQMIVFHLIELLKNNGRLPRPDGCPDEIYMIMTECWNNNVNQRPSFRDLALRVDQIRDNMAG

MERTK = MERTK (UniProt Q12866); test: as above
MERTK, sequence (Q12866 whole entry, looked up): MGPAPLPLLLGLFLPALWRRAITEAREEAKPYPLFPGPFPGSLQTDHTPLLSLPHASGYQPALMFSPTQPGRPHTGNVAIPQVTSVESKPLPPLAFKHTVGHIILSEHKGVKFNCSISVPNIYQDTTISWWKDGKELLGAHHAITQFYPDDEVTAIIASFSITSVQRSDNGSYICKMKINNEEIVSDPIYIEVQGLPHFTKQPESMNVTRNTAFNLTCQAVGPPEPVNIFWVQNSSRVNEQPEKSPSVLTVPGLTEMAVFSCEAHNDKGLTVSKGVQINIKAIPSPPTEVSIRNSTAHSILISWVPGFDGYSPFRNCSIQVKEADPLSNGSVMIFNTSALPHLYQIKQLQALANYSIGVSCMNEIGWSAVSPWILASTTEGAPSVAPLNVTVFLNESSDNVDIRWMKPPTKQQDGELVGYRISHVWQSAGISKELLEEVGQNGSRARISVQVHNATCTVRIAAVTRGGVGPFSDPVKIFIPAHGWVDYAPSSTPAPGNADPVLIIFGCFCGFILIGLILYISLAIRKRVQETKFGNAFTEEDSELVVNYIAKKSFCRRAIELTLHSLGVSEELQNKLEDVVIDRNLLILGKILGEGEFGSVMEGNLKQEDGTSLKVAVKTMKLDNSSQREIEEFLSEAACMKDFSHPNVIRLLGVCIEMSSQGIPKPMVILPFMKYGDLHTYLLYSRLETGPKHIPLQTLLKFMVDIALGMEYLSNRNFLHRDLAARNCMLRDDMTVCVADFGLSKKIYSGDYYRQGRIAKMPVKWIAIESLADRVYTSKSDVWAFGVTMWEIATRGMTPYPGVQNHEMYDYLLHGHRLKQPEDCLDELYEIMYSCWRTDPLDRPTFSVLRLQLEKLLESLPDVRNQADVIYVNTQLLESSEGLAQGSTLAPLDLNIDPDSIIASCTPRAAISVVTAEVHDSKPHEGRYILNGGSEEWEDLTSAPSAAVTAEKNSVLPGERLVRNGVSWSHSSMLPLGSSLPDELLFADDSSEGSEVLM

c-Abl (mouse) = test: as above
c-Src = test: as above
Grb2 SH2 = Grb2 SH2 (UniProt P62993); test: SH2 binding enrichment of the phosphorylated peptide, bacterial display (enrichment ratio); higher = better substrate or ligand; peptides without Tyr show the background
SHP2-C SH2 = test: as above
c-Src SH2 = test: as above
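Throughout, for SH2 binding enrichment of the phosphorylated peptide, bacterial display: peptide library displayed on the E. coli surface as eCPX fusions, selected cells deep-sequenced, score is each peptide's frequency after selection divided by its frequency in the input.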
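Throughout, for phosphorylation enrichment, bacterial display: 11-residue human phosphosite peptides and single-mutation variants displayed on the E. coli surface, counted by deep sequencing, each peptide's frequency after selection divided by its frequency in the unselected input library; frequency after pTyr selection over input frequency; kinase dosed for 20-30% of maximal phosphorylation in three min.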

| SH2 binding enrichment (Grb2 SH2) | SH2 binding enrichment (SHP2-C SH2) | SH2 binding enrichment (c-Src SH2) | Sequence | phosphorylation enrichment (AncSZ) | phosphorylation enrichment (EPHB1) | phosphorylation enrichment (EPHB2) | phosphorylation enrichment (FGFR1) | phosphorylation enrichment (FGFR3) | phosphorylation enrichment (Fer (mouse)) | phosphorylation enrichment (Fes) | phosphorylation enrichment (Fyn) | phosphorylation enrichment (Hck) | phosphorylation enrichment (Jak2) | phosphorylation enrichment (MERTK) | phosphorylation enrichment (c-Abl (mouse)) | phosphorylation enrichment (c-Src) |
| --- | --- | --- | --- | --- | --- | --- | --- | --- | --- | --- | --- | --- | --- | --- | --- | --- |
| 0.976 | 0.856 | 0.853 | IFHLSYIHNCE [PDE6B_Y227_L228I_YF] | 1.16 | 0.699 | 0.71 | 0.495 | 0.91 | 0.526 | 1.35 | 0.494 | 0.577 | 1.04 | 0.392 | 0.745 | 0.352 |
| 1.06 | 1.08 | 0.705 | IFGVSYGEFRF [CFTR_Y512_D513G_YF] | 0.941 | 0.576 | 0.561 | 0.383 | 0.646 | 0.504 | 1.09 | 5.32 | 4.06 | 0.99 | 0.465 | 0.779 | 5.39 |
| 0.787 | 0.499 | 0.547 | RHSGSYFVTSV [APC_Y2838_L2839F] | 0.895 | 0.517 | 0.654 | 0.574 | 0.565 | 0.444 | 0.845 | 0.598 | 0.591 | 0.89 | 0.676 | 0.741 | 0.785 |
| 0.842 | 0.579 | 0.49 | RALLNYIASKF [GSTA3_Y74_I71L_YF] | 1.13 | 0.763 | 0.624 | 0.423 | 0.767 | 0.553 | 0.956 | 0.385 | 0.721 | 0.536 | 0.597 | 0.638 | 0.587 |
| 0.899 | 0.661 | 0.684 | TWQSMYGCDVG [HLA-B_Y123_L119W] | 1.02 | 0.933 | 0.63 | 0.533 | 0.802 | 0.548 | 1.22 | 0.531 | 0.498 | 1.37 | 0.6 | 1.03 | 0.735 |
| 0.66 | 0.582 | 0.299 | ETLLFYGCRRS [POR_Y564_YF] | 0.749 | 0.468 | 0.458 | 0.621 | 0.445 | 0.465 | 0.675 | 0.43 | 0.463 | 0.659 | 0.424 | 0.82 | 0.563 |
| 1.16 | 0.953 | 1.08 | RPYSPYIIRGM [LRP5_Y1531_R1529S] | 0.886 | 0.59 | 0.575 | 0.399 | 0.509 | 1.75 | 0.816 | 0.848 | 0.642 | 0.508 | 0.438 | 0.681 | 1.07 |
| 0.917 | 0.605 | 0.729 | ADEEFYEIIAA [FEStide_F_2014] | 2.54 | 0.886 | 0.77 | 1.5 | 1.4 | 7.22 | 1.57 | 2.42 | 3.26 | 1.09 | 2.19 | 0.853 | 3.36 |
| 0.849 | 0.742 | 0.661 | LKMLVYMDMSK [LRRC7_Y234_L235M] | 1.45 | 1.79 | 0.804 | 1.02 | 0.984 | 0.842 | 2.25 | 0.807 | 0.802 | 1.85 | 0.689 | 1.23 | 0.872 |
| 0.907 | 1.03 | 0.738 | FFRCHYPLTTL [TNS4_Y644_R642C] | 0.914 | 0.509 | 0.512 | 0.463 | 0.696 | 0.39 | 1.01 | 0.374 | 0.48 | 0.79 | 0.4 | 0.595 | 0.43 |
| 0.948 | 0.864 | 0.87 | INMKKYCKKDY [NTN1_Y490] | 0.626 | 0.424 | 0.298 | 0.45 | 0.592 | 0.434 | 0.912 | 0.391 | 0.461 | 0.698 | 0.402 | 0.824 | 0.401 |
| 1.59 | 1.82 | 1.37 | KVKPIYFHTQG [AR_Y916] | 0.645 | 0.358 | 0.422 | 0.468 | 0.507 | 0.28 | 0.708 | 0.371 | 0.385 | 0.53 | 0.356 | 0.578 | 0.522 |
| 0.72 | 0.856 | 0.539 | LFHENYNAGTF [CFI_Y421_I416L_YF] | 0.928 | 0.848 | 1.23 | 0.634 | 0.941 | 0.822 | 1.11 | 0.683 | 0.596 | 1.07 | 0.654 | 0.597 | 0.649 |
| 0.756 | 0.617 | 0.555 | MKDLTYSSLCF [ALOX5_Y446_A447S] | 1.48 | 2.89 | 2.67 | 0.997 | 1.14 | 3.84 | 1.35 | 6.62 | 6.78 | 1.21 | 4.91 | 1.53 | 5.91 |
| 0.705 | 0.709 | 0.385 | GLGGVYGGASG [KRT8_Y54_G53V] | 0.514 | 0.445 | 0.355 | 0.448 | 0.52 | 0.418 | 0.661 | 0.566 | 0.669 | 0.587 | 0.445 | 0.577 | 0.702 |
| 0.922 | 0.924 | 0.699 | EEGESDVCSSD [DCX_Y125_Y125D] | 1.04 | 0.525 | 0.507 | 0.497 | 0.544 | 0.479 | 0.939 | 0.505 | 0.457 | 0.797 | 0.495 | 0.621 | 0.518 |
